Measurements reported in US20250122306A1 (SUTRO BIOPHARMA, published 2025).

T1: cynomolgus tissue factor (cynomolgus TF, Sino Bio #90885-C08H) (cynomolgus monkey, UniProt P13726 33-251 (human entry))
T1 construct: bought recombinant antigen; also called cyno TF
T1 chain: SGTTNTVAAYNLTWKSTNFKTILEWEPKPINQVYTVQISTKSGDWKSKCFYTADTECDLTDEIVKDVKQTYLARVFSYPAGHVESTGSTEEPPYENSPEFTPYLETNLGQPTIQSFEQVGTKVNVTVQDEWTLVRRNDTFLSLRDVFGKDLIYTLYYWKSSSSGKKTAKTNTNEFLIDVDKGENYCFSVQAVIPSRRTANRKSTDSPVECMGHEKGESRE

T2: cynomolgus tissue factor on HEK293T-cynoTF cells (cynomolgus monkey, UniProt P13726 33-294 (human entry))
T2 construct: stably transfected HEK293T cells
T2 chain: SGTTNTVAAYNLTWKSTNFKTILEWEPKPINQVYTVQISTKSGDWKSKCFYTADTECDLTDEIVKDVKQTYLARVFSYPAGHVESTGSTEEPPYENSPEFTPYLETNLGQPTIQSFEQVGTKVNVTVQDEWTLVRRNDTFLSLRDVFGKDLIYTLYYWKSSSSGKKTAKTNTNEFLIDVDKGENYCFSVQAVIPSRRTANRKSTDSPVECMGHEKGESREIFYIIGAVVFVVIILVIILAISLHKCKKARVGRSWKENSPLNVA


Experiments:
[1] = biological target: T3, human tissue factor (human TF, Lake Pharma) (human, UniProt P13726 33-251, limits assumed); experiment: Biacore SPR, single-point off-rate (100 nM antigen), antibody captured on anti-Fc
T3 construct: bought recombinant antigen; also called CD142
Procedure: (§1) Anti-Fc polyclonal antibodies were immobilized onto a CM4 chip (Cytiva #BR100534) using amine coupling chemistry (Human Antibody Capture Kit, Cytiva #BR100839). The immobilization steps were carried out at a flow rate of 25 μL/min in 1×HBS-EP+buffer (Cytiva #BR100669). The sensor surfaces were activated for 7 min with a mixture of N-hydroxysuccinimide (NHS, 0.05 M) and 1-ethyl-3-(3-dimethylaminopropyl)-carbodiimide (EDC, 0.2 M). The anti-Fc polyclonal antibodies were injected over all 4 flow cells at a concentration of 25 μg/mL in 10 mM sodium acetate, pH 4.5, for 7 min. Ethanolamine (1 M, pH 8.5) was injected for 7 min to block any remaining activated groups.
(§2) Off-rate and kinetic binding experiments were performed at 25° C. using 1×HBS-EP+buffer. Antibodies were injected over the anti-Fc surface at a concentration of 3 μg/mL for 12 seconds at a flow rate of 10 μL/min on flow cells 2, 3 and 4, followed by a buffer wash for 30 seconds at the same flow rate. Single point off-rate analysis was carried out using an antigen concentration of 100 nM. […] After capturing ligand (antibody) on the anti-Fc surface, the analyte (human TF, Lake Pharma; cynomolgus TF, Sino Bio #90885-C08H; mouse TF, R&D Systems #3178-PA) was bound for 180 seconds, followed by a 420 second dissociation phase at a flow rate of […]. Between each ligand capture and analyte binding cycle, regeneration was carried out using 2 injections of 10 mM glycine pH 2.0 for 30 seconds at 30 μL/min, followed by a 30 second buffer wash step.

[2] = biological target: T1, cynomolgus tissue factor (cynomolgus …); experiment: as above
Procedure: as §1, §2

[3] = biological target: T4, human tissue factor on cells (human, UniProt P13726 33-295); experiment: flow cytometry on BxPC3 cells (TF positive), one-site fit of MFI
T4 construct: cell-surface TF, transfected (HEK293T-humanTF) or endogenous (tumour lines, keratinocytes); the cell line is named under assay; also called HEK293T-humanTF; TF on BxPC3, primary human keratinocytes, NCI-H292, HCC1954, NCI-H1975
Description: (§3) HEK293T, BxPC3 cells (TF positive) and NCI-H1703 (TF negative) cells were obtained from ATCC (American Type Culture Collection) and maintained in DMEM: F12 (1:1), high glucose (Corning) supplemented with 10% heat-inactivated fetal bovine serum (ThermoScientific), 1× Penicillin/Streptomycin (Corning) and 2 mmol glutamax (Thermo Fisher Scientific). To generate cells that stably expressing human tissue factor (HEK293T-humanTF) or cynomolgus tissue factor (HEK293T-cynoTF), HEK293T cells were transfected with plasmid vectors that contain the corresponding protein sequence and stable clones were selected with puromycin.
(§4) For a fluorescence-activated cell sorting (FACS) cell-binding assay, cells were collected by Accutase and counted by the Vi-CELL Cell Viability Analyzersharvested and, then re-suspended in FACS buffer (DPBS buffer supplemented with 1% bovine serum albumin). A total of 200,000 cells in 100 μL were incubated on ice with 100 μL of anti-TF antibodies in each well of a 96-well plate. Cells were washed twice with ice-cold FACS buffer and then incubated on ice for 60 mins with 5 μg/mL Alexa 647-labeled donkey anti-human Fc antibody (Jackson ImmunoResearch). Unstained cells and cells stained with secondary antibody alone were used as controls. Cells were washed twice with FACS buffer and analyzed using a BD FACS Canto system. Geometric mean fluorescence intensities (MFI) were fitted using non-linear regression analysis with one site specific binding equation on GraphPad Prism (GraphPad Software; La Jolla, CA).

[4] = biological target: tissue factor reagent of the Tissue Factor Activity Assay Kit (Abcam #ab108906) (UniProt P13726 33-295, limits assumed); experiment: cell-based or functional assay
[5] = biological target: T2, cynomolgus tissue factor on …; experiment: flow cytometry on HEK293T-cynoTF cells, one-site fit of MFI
Description: as §3, §4

[6] = biological target: T4, human tissue factor on cells; experiment: flow cytometry on HEK293T-humanTF cells, one-site fit of MFI
Description: as §3, §4

[7] = biological target: T3, human tissue factor (human TF, Lake …); experiment: Biacore SPR kinetics, antibody captured on anti-Fc, 1:1 Langmuir fit
Procedure: as §1, §2
(§5) The data were fit with the Biacore T200 Evaluation software, using a 1:1 Langmuir binding model. KD (affinity, nM) was determined as a ratio of the kinetic rate constants calculated from the fits of the association and dissociation phases.

[8] = biological target: T1, cynomolgus tissue factor (cynomolgus …); experiment: as above
Procedure: as §1, §2, §5

| koff [1] | koff [2] | Bmax (MFI) [3] | Kd [3] | FX conversion (% inhibition), 1000 nM antibody [4] | Bmax (MFI) [5] | Kd [5] | Bmax (MFI) [6] | Kd [6] | Kd [7] | koff [7] | kon [7] | Kd [8] | koff [8] | kon [8] | Binder |
| --- | --- | --- | --- | --- | --- | --- | --- | --- | --- | --- | --- | --- | --- | --- | --- |
|  |  |  |  |  | 426000 MFI | 16 nM | 275000 MFI | 0.8 nM | 3.59 nM | 0.000674 s⁻¹ | 188000 M⁻¹ s⁻¹ | 24.2 nM | 0.00309 s⁻¹ | 128000 M⁻¹ s⁻¹ | mAb 42: aTF_2900-C11_HC_Y180/F404TAG_SerOpt; Trastuzumab LC SerOpt (antibody, human IgG1, kappa, V domains shown, non-natural amino acid (pAMF) at TAG sites Y180 and F404 (EU), * in the sequence, unconjugated full-length IgG1/kappa) VH: EVQLVESGGGLVQPGGSLRLSCAASGFTISQYWIHWVRQAPGKGLEWVGYIDPYNGYTYYADSVKGRFTISADTSKNTAYLQMNSLRAEDTAVYYCARDYGSWRIRLDYWGQGTLVTVSS VL: not shown |
|  |  |  |  |  | 419000 MFI | 21 nM | 253000 MFI | 1.7 nM | 19.1 nM | 0.00594 s⁻¹ | 311000 M⁻¹ s⁻¹ | 7.33 nM | 0.00231 s⁻¹ | 316000 M⁻¹ s⁻¹ | mAb 43: aTF_2900-F06_HC_Y180/F404TAG_SerOpt; Trastuzumab LC SerOpt (antibody, human IgG1, kappa, V domains shown, non-natural amino acid (pAMF) at TAG sites Y180 and F404 (EU), * in the sequence, unconjugated full-length IgG1/kappa) VH: EVQLVESGGGLVQPGGSLRLSCAASGFTISIYTIHWVRQAPGKGLEWVGYIDPSNGYTYYADSVKGRLTISADTSKNTAYLQMNSLRAEDTAVYYCARDPQSISSPFDYWGQGTLVTVSS VL: not shown |

Further lines, the binder ahead of its results:

| Binder | koff [1] | koff [2] | Bmax (MFI) [3] | Kd [3] | FX conversion (% inhibition), 1000 nM antibody [4] | Bmax (MFI) [5] | Kd [5] | Bmax (MFI) [6] | Kd [6] | Kd [7] | koff [7] | kon [7] | Kd [8] | koff [8] | kon [8] |
| --- | --- | --- | --- | --- | --- | --- | --- | --- | --- | --- | --- | --- | --- | --- | --- |
| SRP2799-A05 (antibody, IgG1, V domains shown, also called SRP2799-A05 (parent)) VH: EVQLVESGGGLVQPGGSLRLSCAASGFNISSYWIHWVRQAPGKGLEWVGYIDPYSGSTYYADSVKGRFTISADTSKNTAYLQMNSLRAEDTAVYYCARSDYYYVDEYMDYWGQGTLVTVSS VL: not shown | 0.00304 s⁻¹ | 0.0337 s⁻¹ | 52700 MFI | 26.1 nM | 1.12% |  |  |  |  |  |  |  |  |  |  |
| mAb 49: aTF_2842-G04_HC2_Y180/F404TAG; aTF_2842-G04_LC2 (antibody, IgG1, V domains shown, non-natural amino acid (pAMF) at TAG sites Y180 and F404 (EU), * in the sequence, unconjugated full-length IgG1/kappa; also called 2842-G04 HC2/LC2) VH: QVQVQESGPGLVKPPGTLSLTCAVSGFSLSYYGVSWVRQPPGKGLEWIGTIDSSGRTYYNPSLKSRVTISNDNAPNTVSLKLSSVTAADTAVYYCARDFYGWNSGALDIWGQGTLVTVSS VL: DLQLTQSPSTLSASVGDRVTITCRASQSVYSNKYLSWYQQKPGKAPKLLIYKASTLASGVPSRFSGSGSGTEFTLTISSLQPDDFATYYCAAAYSDDSDTAFGQGTKVEIKR |  |  |  |  |  | 465000 MFI | 5.1 nM | 244000 MFI | 1.4 nM | 13.8 nM | 0.000865 s⁻¹ | 62500 M⁻¹ s⁻¹ | 29.9 nM | 0.00241 s⁻¹ | 80800 M⁻¹ s⁻¹ |
| mAb 46: aTF_2900-H09_HC_Y180/F404TAG_SerOpt; Trastuzumab LC SerOpt (antibody, human IgG1, kappa, V domains shown, non-natural amino acid (pAMF) at TAG sites Y180 and F404 (EU), * in the sequence, unconjugated full-length IgG1/kappa) VH: EVQLVESGGGLVQPGGSLRLSCAASGFTISDYVIHWVRQAPGKGLEWVGYIDPSNGYTYYADSVKGRFTISADTSKNTAYLQMNSLRAEDTAVYYCARDDQSISSPLDYWGQGTLVTVSS VL: not shown |  |  |  |  |  | 483000 MFI | 38 nM | 300000 MFI | 0.93 nM | 6.24 nM | 0.00226 s⁻¹ | 362000 M⁻¹ s⁻¹ | 41.6 nM | 0.00681 s⁻¹ | 164000 M⁻¹ s⁻¹ |
